Our source for the binding signal and Kd values is paper doi:10.1101/163188.

Data set [1] has as its system TePif1 (Thermotoga elfii (Pseudothermotoga elfii)). In words: EMSA. (Mobility shift assays separate free from complexed probe on a gel.)
Data set [2] concerns TePif1-4x (Thermotoga elfii (Pseudothermotoga elfii)). In words: EMSA.

3' tail had a binding signal in data set [1] of more than 20 % bound.

In general, Kd refers to the concentration at which binding is half-saturated. High values mean lower affinity, low ones higher affinity. 5' tail: in data set [1], the Kd amounted to 4.53 nM.

The substance Fork returned a Kd in data set [1] of 4.4 nM.

“TTTTTTTTTTTTTTTTTTTTTTTTTTTTTTTTTTTTTTTTTTTTTTTTTT [poly(dT) 50mer]”: the binding signal in data set [2] came to 5 % bound. In the case of ssDNA 45-nt, the Kd in data set [1] turned out to be 0.93 nM.
